Assay results taken from PMC4709657, “Construction of a subunit-fusion nitrile hydratase and discovery of an innovative metal ion transfer pattern” (Scientific Reports, 2016).

How the values were obtained:
[1] = target: T1, wild-type NHase (Pseudomonas putida, UniProt P97051+P97052); assay: product tolerance: 3-cyanopyridine consumption with / without nicotinamide; format: biochemical; conditions: 20 mM 3-cyanopyridine, 10 min
T1 construct: gene nthA; tetramer alpha2beta2; EC 4.2.1.84; tag not clearly stated
T1 sequence (P97051 1-210): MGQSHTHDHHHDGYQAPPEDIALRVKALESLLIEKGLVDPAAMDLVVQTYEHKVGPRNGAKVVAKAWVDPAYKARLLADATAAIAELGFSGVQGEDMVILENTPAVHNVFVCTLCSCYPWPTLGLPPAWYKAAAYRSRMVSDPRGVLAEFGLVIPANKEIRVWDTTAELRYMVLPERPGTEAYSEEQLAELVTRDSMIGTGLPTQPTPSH
T1 sequence (P97052 1-217): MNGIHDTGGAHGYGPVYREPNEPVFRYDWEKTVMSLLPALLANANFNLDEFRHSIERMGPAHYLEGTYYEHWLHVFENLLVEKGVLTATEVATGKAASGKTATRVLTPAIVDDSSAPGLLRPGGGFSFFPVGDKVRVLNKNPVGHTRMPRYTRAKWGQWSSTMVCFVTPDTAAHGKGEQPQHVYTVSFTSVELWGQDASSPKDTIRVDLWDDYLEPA

[2] = target: T2, NHase-(BA)P14K (Pseudomonas putida, UniProt P97051+P97052); assay: as above; format: biochemical; conditions: 20 mM 3-cyanopyridine, 10 min
T2 construct: gene nthB; pET28a, E. coli
T2 sequence (P97052 1-217): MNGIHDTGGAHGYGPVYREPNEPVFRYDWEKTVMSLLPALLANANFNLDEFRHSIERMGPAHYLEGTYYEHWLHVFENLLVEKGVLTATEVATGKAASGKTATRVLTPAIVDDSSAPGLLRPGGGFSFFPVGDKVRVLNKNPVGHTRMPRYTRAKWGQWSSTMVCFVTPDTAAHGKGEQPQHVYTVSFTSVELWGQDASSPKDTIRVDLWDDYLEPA
T2 sequence (P97051 1-210): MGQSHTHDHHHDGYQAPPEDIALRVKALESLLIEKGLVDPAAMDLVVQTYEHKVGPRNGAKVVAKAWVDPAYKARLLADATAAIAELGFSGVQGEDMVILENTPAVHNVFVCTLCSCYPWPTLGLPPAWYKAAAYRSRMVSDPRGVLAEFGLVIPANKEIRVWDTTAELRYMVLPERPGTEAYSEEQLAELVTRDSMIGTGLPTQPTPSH

[3] = target: T3, NHase-(BAP14K) (Pseudomonas putida, UniProt P97051+P97052); assay: as above; format: biochemical; conditions: 20 mM 3-cyanopyridine, 10 min
T3 construct: gene nthB; pET28a, E. coli; cobalt-loaded
T3 sequence (P97052 1-217): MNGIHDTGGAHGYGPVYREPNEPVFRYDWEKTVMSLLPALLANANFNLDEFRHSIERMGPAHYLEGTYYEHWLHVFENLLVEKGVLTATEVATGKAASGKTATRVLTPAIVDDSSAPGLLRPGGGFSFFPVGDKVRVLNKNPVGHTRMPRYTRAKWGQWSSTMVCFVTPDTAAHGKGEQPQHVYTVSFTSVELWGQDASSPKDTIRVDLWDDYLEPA
T3 sequence (P97051 1-210): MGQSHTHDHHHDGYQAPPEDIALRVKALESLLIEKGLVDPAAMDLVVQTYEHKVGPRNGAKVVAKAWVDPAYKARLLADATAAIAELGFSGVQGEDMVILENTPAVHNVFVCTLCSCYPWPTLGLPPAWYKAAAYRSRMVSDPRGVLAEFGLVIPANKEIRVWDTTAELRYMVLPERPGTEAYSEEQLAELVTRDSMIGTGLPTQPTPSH
T3 sequence (O69769 1-127 partner): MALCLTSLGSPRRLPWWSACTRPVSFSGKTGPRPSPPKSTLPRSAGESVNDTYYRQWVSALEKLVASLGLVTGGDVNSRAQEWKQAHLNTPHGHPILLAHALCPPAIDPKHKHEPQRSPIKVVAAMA

[4] = target: the molecule itself; assay: SEC; purified enzymes and marker proteins on a Superdex 200 10/300 GL column, 10 mM KPB; mass from the standard curve of marker proteins, oligomer inferred from the mass
[5] = substrate: N#Cc1cccnc1; assay: nicotinamide formation, A215; format: biochemical, Pseudomonas putida; conditions: 10 mM KPB, 25 °C, 2 min, 10-200 mM substrate, cobalt enzyme
Text: nicotinamide formation, A215 on wild-type NHase

Molecule: NC(=O)c1cccnc1 [nicotinamide]
- reduction ratio (with / without 0.5 M nicotinamide) [1]: 0.80
- reduction ratio (with / without 0.5 M nicotinamide) [2]: 0.86
- reduction ratio (with / without 0.5 M nicotinamide) [3]: 0.83

B1: NHase-(BA)P14K, fusion nitrile hydratase encoded by the gene (BA)P14K (enzyme, Pseudomonas putida NRRL-18668)
chain: MNGIHDTGGAHGYGPVYREPNEPVFRYDWEKTVMSLLPALLANANFNLDEFRHSIERMGPAHYLEGTYYEHWLHVFENLLVEKGVLTATEVATGKAASGKTATRVLTPAIVDDSSAPGLLRPGGGFSFFPVGDKVRVLNKNPVGHTRMPRYTRAKWGQWSSTMVCFVTPDTAAHGKGEQPQHVYTVSFTSVELWGQDASSPKDTIRVDLWDDYLEPAPGMGQSHTHDHHHDGYQAPPEDIALRVKALESLLIEKGLVDPAAMDLVVQTYEHKVGPRNGAKVVAKAWVDPAYKARLLADATAAIAELGFSGVQGEDMVILENTPAVHNVFVCTLCSCYPWPTLGLPPAWYKAAAYRSRMVSDPRGVLAEFGLVIPANKEIRVWDTTAELRYMVLPERPGTEAYSEEQLAELVTRDSMIGTGLPTQPTPSH
notes: β-subunit of the cobalt nitrile hydratase of Pseudomonas putida NRRL-18668 (B gene); MALDI-TOF indicated the full length of βα; linker, dipeptide proline-glycine; α-subunit of the cobalt nitrile hydratase of Pseudomonas putida NRRL-18668 (A gene); Same polypeptide as m1 but made with P14K co-expressed from the same plasmid; cobalt-containing (0.84 per βα); P14K is not part of the purified enzyme; …
- stoichiometry N [4]: 2

B2: wild-type NHase (Pseudomonas putida) (protein)
chain 1: MGQSHTHDHHHDGYQAPPEDIALRVKALESLLIEKGLVDPAAMDLVVQTYEHKVGPRNGAKVVAKAWVDPAYKARLLADATAAIAELGFSGVQGEDMVILENTPAVHNVFVCTLCSCYPWPTLGLPPAWYKAAAYRSRMVSDPRGVLAEFGLVIPANKEIRVWDTTAELRYMVLPERPGTEAYSEEQLAELVTRDSMIGTGLPTQPTPSH
chain 2: MNGIHDTGGAHGYGPVYREPNEPVFRYDWEKTVMSLLPALLANANFNLDEFRHSIERMGPAHYLEGTYYEHWLHVFENLLVEKGVLTATEVATGKAASGKTATRVLTPAIVDDSSAPGLLRPGGGFSFFPVGDKVRVLNKNPVGHTRMPRYTRAKWGQWSSTMVCFVTPDTAAHGKGEQPQHVYTVSFTSVELWGQDASSPKDTIRVDLWDDYLEPA
notes: tetramer alpha2beta2; EC 4.2.1.84; tag not clearly stated
- Km [5]: 41.2 ± 7.7 mM
- kcat [5]: 335 ± 57.6 s⁻¹
- kcat/Km [5]: 8100 M⁻¹ s⁻¹
